From US20230212587A1, “Mutant Hydroxyphenylpyruvate Dioxygenase Polypeptide, Encoding Gene Thereof and Use Therefor” (Beijing Dabeinong Biotechnology Co., Ltd., priority 2019, published 2023)
Substitutions are numbered along the chain they refer to. Names and notes keep the numbering of the source.

B1: HaHPPD-02: native Helianthus annuus HPPD, SEQ ID NO: 93 (protein, listed as Helianthus annuus)
chain: MGTEATVAAVVAGDESDHPTSAFKLVGFKNFIRTNPMSDKFTVKNFHHIEFWCSDATNTARRFSWGLGMPIIFKSDLSTGNSTHASYLLRSGHLNFLFTAPYSPSISPTTTTASIPTFSHSASRHFTATHGLAVRAIAVEVEDAETAFAVSVANGAKPSSPPVTLGHNDVVLSEVKLYGDVVLRYVSYKNNTNNNNNNDNDNYIFLPGFEAMDKTSSFQELDYGIRRLDHAVGNVPELAPAVDYVKSFTGFHEFAEFTAEDVGTSESGLNSVVLACNSEMVLIPMNEPVYGTKRKSQIQTYLEHNEGAGVQHLALASEDIFRTLREMRKRSGVGGFEFMPSPPPTYYRNLKSRAGDVLSDEQIKECEELGILVDRDDQGTLLQIFTKPVGDRPTIFIEIIQRVGCMVKDDEGKVQQKAGCGGFGKGNFSELFKSIEEYEKTLEARSTTAAA
modifications: HaHPPD Amino Acid Sequence
B2: HaHPPDm-F372A-02: Helianthus annuus HPPD mutant F372A, SEQ ID NO: 96 (protein)
chain: B1 chain with F385A
modifications: HaHPPDm-F372A Amino Acid Sequence
B3: BnHPPD-02: native Brassica napus HPPD, SEQ ID NO: 87 (protein, listed as Brassica napus)
chain: MGHENAAVCETQQHDDAASPGFKLVGFSKFVRKNPKSDKFKVKRFHHIEFWCGDATNVSRRFSWGLGMRFSAKSDLSTGNMVHASYLLTSGDLRFLFTAPYSPSLSAGEAQPSATASIPSFDHASCRSFFSSHGLGVRAVAIEVEDAESAFSISVANGAVPSSPPNVLNGAVTIAEVKLYGDVVLRYVSYYNGTVSFLPGFESVDDTSSFPLDYGIRRLDHAVGNVPELGPALTYLAGFTGFHQFAEFTADDVGTAESGLNSAVLANNDEMVLLPINEPVHGTKRKSQIQTFLEHNEGAGLQHLALMSEDIFRTLREMRKRSGVGGFDFMPSPPPTYYKNLKKRVGDVLSEEQIEECEELGILVDRDDQGTLLQIFTKPLGDRPTIFIEIIQRVGCMKRDEEGKVYQSGGCGGFGKGNFSELFKSIEEYEKTLEAKQLVG
modifications: BnHPPD Amino Acid Sequence
B4: BnHPPDm-F372A-02: Brassica napus HPPD mutant F372A, SEQ ID NO: 90 (protein)
chain: B3 chain with F376A
modifications: BnHPPDm-F372A Amino Acid Sequence
B5: ZmHPPD-02: native Zea mays HPPD, SEQ ID NO: 17 (protein)
chain: MPPTPTAAAAGAAVAAASAAEQAAFRLVGHRNFVRFNPRSDRFHTLAFHHVELWCADAASAAGRFSFGLGAPLAARSDLSTGNSAHASLLLRSGSLSFLFTAPYAHGADAATAALPSFSAAAARRFAADHGLAVRAVALRVADAEEAFRTSVAAGARPAFGPVDLGRGFRLAEVELYGDVVLRYVSYPDGAAGEPFLPGFEGVASPGAADYGLSRFDHIVGNVPELAPAAAYFAGFTGFHEFAEFTTEDVGTAESGLNSMVLANNSENVLLPLNEPVHGTKRRSQIQTFLDHHGGPGVQHMALASDDVLRTLREMQARSAMGGFEFMAPPTSDYYDGVRRRAGDVLTEAQIKECQELGVLVDRDDQGVLLQIFPKPVGDRPTLFLEIIQRIGCMERDEKGQEYQKGGCGGFGKGNFSQLFKSIEDYEKSLEAMQAAAAATAQGS
modifications: Zea mays; ZmHPPD Amino Acid Sequence (Zea mays)
B6: MsHPPD-02: native Medicago sativa HPPD, SEQ ID NO: 99 (protein, listed as Medicago sativa)
chain: MAIETETQTQTGFKLVGFKNFVRANPKSDRFKVKRFHHVEFWCTDATNTARRFSHGLGMPIVAKSDLSTGNQTHASYLLRSGDLNFLFSAAYSPSISLSSPSSTAAIPTFSASNCFSFSASHGLAVRAVAVEVEDAELAFTTSVNNGAIPSSPPVILENHVKLAEVRLYGDVVLRYVSYNDPNPNQNPNLLFLPGFERVSDESSNSSLDFGIRRLDHAVGNVPELSSAVKYVKDFTGFHEFAEFTAEDVGTSESGLNSVVLANNEETVLLPMNEPVYGTKRKSQIETYLEHNEGAGLQHLALKSEDIFRTLREMRKRSGVGGFEFMPSPPVTYYRNLKNRVGDVLSDEQIKECEELGILVDRDDQGTLLQIFTKPIGDRPTIFIEIIQRVGCMLKDEEGKEYQKGGCGGFGKGNFSELFKSIEEYEKTLETRRTA
modifications: MsHPPD Amino Acid Sequence

System: Arabidopsis thaliana T1 plants
Assay: Topramezone tolerance of transgenic Arabidopsis thaliana T1 plants (pesticide damage grade by bleached leaf area, score, resistance evaluation)
Type: in vivo
Details: HPPDs from different species, 7 DAT; for Classification and statistics of pesticide damage grade Grade 0 / Classification and statistics of pesticide damage grade Grade 1 / Classification and statistics of pesticide damage grade Grade 2 / Classification and statistics of pesticide damage grade Grade 3: number of plants (of 16) in this grade; for Scores: score for pesticide damage 0-100
How it was run: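 Eighteen days after sowing, wild-type and HPPD-transgenic T1 Arabidopsis receive a topramezone spray at 1×, 2× or 4× field rate (25–100 g ai/ha) or water. Seven days later each plant is graded by its proportion of bleached leaf area.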

Row | Molecule | Classification and statistics of pesticide damage grade Grade 0 (topramezone 25 g ai/ha (1x)) | Classification and statistics of pesticide damage grade Grade 1 (topramezone 25 g ai/ha (1x)) | Classification and statistics of pesticide damage grade Grade 2 (topramezone 25 g ai/ha (1x)) | Classification and statistics of pesticide damage grade Grade 3 (topramezone 25 g ai/ha (1x)) | Classification and statistics of pesticide damage grade Grade 0 (topramezone 100 g ai/ha (4x)) | Classification and statistics of pesticide damage grade Grade 1 (topramezone 100 g ai/ha (4x)) | Classification and statistics of pesticide damage grade Grade 2 (topramezone 100 g ai/ha (4x)) | Classification and statistics of pesticide damage grade Grade 3 (topramezone 100 g ai/ha (4x)) | Scores (topramezone 25 g ai/ha (1x)) | Scores (topramezone 100 g ai/ha (4x)) | Resistance evaluation (topramezone 25 g ai/ha (1x)) | Resistance evaluation (topramezone 100 g ai/ha (4x))
1 | B1 | 0 | 0 | 0 | 16 | 0 | 0 | 0 | 16 | 100 | 100 | non-resistant (non-resistant plants (scores 68-100)) | non-resistant (non-resistant plants (scores 68-100))
2 | B2 | 0 | 8 | 8 | 0 | 0 | 2 | 12 | 2 | 50 | 67 | poorly resistant (poorly resistant plants (scores 34-67)) | poorly resistant (poorly resistant plants (scores 34-67))
3 | B3 | 0 | 0 | 0 | 16 | 0 | 0 | 0 | 16 | 100 | 100 | non-resistant (non-resistant plants (scores 68-100)) | non-resistant (non-resistant plants (scores 68-100))
4 | B4 | 0 | 4 | 12 | 0 | 0 | 0 | 0 | 16 | 58 | 100 | poorly resistant (poorly resistant plants (scores 34-67)) | non-resistant (non-resistant plants (scores 68-100))
5 | B5 | 0 | 0 | 0 | 16 | 0 | 0 | 0 | 16 | 100 | 100 | non-resistant (non-resistant plants (scores 68-100)) | non-resistant (non-resistant plants (scores 68-100))
6 | B6 | 0 | 0 | 0 | 16 | 0 | 0 | 0 | 16 | 100 | 100 | non-resistant (non-resistant plants (scores 68-100)) | non-resistant (non-resistant plants (scores 68-100))
